Molecular target: botulinum toxoid A (UniProt P0DPI0)
Experiment: Luminex AMP-capture assay with antibody tracers

Sequence of botulinum toxoid A (P0DPI0 2-1296): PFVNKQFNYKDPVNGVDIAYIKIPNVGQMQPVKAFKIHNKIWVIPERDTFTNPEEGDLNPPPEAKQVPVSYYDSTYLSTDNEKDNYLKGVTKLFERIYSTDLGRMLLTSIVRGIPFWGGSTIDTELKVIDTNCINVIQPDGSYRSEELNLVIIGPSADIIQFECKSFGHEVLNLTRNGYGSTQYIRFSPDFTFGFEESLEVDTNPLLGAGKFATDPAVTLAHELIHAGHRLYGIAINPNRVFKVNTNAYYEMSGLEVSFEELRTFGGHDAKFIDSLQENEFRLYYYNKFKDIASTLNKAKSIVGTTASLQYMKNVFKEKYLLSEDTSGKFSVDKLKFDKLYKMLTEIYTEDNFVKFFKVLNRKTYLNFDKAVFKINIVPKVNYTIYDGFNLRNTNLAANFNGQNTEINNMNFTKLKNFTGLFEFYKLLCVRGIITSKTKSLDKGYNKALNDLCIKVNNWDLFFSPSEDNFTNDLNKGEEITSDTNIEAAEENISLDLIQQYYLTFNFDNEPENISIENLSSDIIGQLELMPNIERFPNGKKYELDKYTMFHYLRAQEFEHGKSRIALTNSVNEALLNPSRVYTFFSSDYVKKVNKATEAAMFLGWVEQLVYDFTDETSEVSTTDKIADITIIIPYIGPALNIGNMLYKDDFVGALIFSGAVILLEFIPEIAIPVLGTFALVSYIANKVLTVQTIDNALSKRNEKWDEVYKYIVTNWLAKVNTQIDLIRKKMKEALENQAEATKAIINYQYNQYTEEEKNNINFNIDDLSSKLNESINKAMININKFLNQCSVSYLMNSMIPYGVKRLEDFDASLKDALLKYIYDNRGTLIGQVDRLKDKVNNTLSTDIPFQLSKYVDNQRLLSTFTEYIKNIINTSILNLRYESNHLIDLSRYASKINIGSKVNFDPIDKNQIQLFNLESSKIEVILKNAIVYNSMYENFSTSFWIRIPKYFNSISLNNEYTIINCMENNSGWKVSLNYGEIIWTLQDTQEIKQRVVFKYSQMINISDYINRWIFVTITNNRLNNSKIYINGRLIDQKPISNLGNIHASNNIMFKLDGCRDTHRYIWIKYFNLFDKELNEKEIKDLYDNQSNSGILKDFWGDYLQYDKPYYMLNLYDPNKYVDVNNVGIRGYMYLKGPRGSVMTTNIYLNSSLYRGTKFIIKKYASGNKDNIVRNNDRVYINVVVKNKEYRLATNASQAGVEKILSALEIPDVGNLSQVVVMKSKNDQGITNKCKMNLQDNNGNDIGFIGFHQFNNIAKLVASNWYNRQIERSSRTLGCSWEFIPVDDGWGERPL

**Q.** For AMP-derivatized Luminex beads, which lowest detectable concentration is on record?
**A.** 1 µg/mL

— patent publication US8658372
